Conditions: Escherichia coli (strain K12), Thermal, CD, NaCl 0.1 M, reversible: yes, whole UniProt chain shown

B1: Ribonuclease HI wild type, P0A7Y4 (protein)
chain: MLKQVEIFTDGSCLGNPGPGGYGAILRYRGREKTFSAGYTRTTNNRMELMAAIVALEALKEHCEVILSTDSQYVRQGITQWIHNWKKRGWKTADKKPVKNVDLWQRLDAALGQHQIKWEWVKGHAGHPENERCDELARAAAMNPTLEDTGYQVEV
- Tm (pH 3, glycine-HCl 10 mM): 50.9 °C
- unfolding enthalpy (van 't Hoff) (pH 3, glycine-HCl 10 mM): 106 kcal/mol
- Tm (pH 5.5, Sodium acetate 10 mM): 52.5 °C
- unfolding enthalpy (van 't Hoff) (pH 5.5, Sodium acetate 10 mM): 81.8 kcal/mol
